Results on 19 molecules are retold here after patent US20190055314A1 (ADAGENE, published 2019).

Where a chain is given by its changes, count along the chain named. Like-named read-outs stand apart in the source and are kept apart here.

For assay [1], the target named is T1, CD137-hisFc fusion protein (Sino Biological Cat 10041-H03H) (human, UniProt Q07011 24-186).
T1 construct: Bought; also called recombinant human CD137 (fused with human Fc and His tag); not shown: His tag and human Fc
Briefly: BLI Octet, Fab.

Assay [2] has as its target T1, CD137-hisFc fusion protein (Sino …). The assay is described as follows: BLI Octet, Fab. This is another data set of the same source. Background: BLI is a label-free optical method that tracks binding on a fibre tip over time.

B1: Fab 5360 (Fab, V domains shown)
VH: EVQLVESGGGLVQPGGSLRLSCAASGYSITSGHYWNWIRQAPGKGLEWVSGISGDGSSTYYADSVKGRFTISRDNSKNTLYLQLNSLRAEDTAVYYCARGGSDAVLGDWFAYWGQGTLVTVSS
VL: DIQLTQSPSSLSASVGDRVTITCRASQSISSYLAWYQQKPGKAPKLLIYDASNLETGVPSRFSGSGSGTDFTLTISSLQPEDFATYYCQQGYSTWTFGQGTKVEIKR
notes: Fab from E. coli; also called VH28/VL28
Take B1: in assay [1], binding was put at a Kd of 24.1 nM; the koff (as a rule, the rate constant with which the complex falls apart) is 0.00289 s⁻¹; the kon (usually the rate constant with which the complex forms) was determined as 120000 M⁻¹ s⁻¹. Besides, in assay [2], the Kd – broadly, the equilibrium constant for the complex coming apart – came to 24 nM; the koff turned out to be 0.0029 s⁻¹; the on-rate (kon) was found to be 120000 M⁻¹ s⁻¹.

B2: Fab 4137 (Fab, V domains shown)
VH: EVQLVESGGGLVQPGGSLRLSCAASGYSITSGYYWGWIRQAPGKGLEWVSGISGSGSSTYYADSVKGRFTISRDNSKNTLYLQLNSLRAEDTAVYYCARGTYSFDVWGQGTLVTVSS
VL: B1 VL with S28G, Y32D, D50A, N53T, E55Q, T56S, G91Y, T94Y, W95I
notes: Fab from E. coli; also called VH7/VL7
In assay [1], B2 came in with a Kd of under 0.001 nM, a koff of under 1e-07 s⁻¹ and an on-rate constant (kon) of 85600 M⁻¹ s⁻¹.

B3: Fab 5302 (Fab, V domains shown)
VH: EVQLVESGGGLVQPGGSLRLSCAASGFSLSTGGVGVAWIRQAPGKGLEWVSSISGYGSTTYYADSVKGRFTISRDNSKNTLYLQLNSLRAEDTAVYYCAREGSDAVLGDWFGYWGQGTLVTVSS
VL: B1 VL with R24Q, S28D, S30T, S31T, L54R, E55A, V58I, S93Y, T94L
notes: Fab from E. coli; also called VH13/VL13
On to B3, for which, in assay [1], the Kd turned out to be 1.21 nM, the dissociation rate constant (koff) stood at 0.000426 s⁻¹ and the kon is 354000 M⁻¹ s⁻¹. In assay [2], this molecule came in with a Kd of 1.2 nM, a koff of 0.00043 s⁻¹ and a kon of 350000 M⁻¹ s⁻¹.

B4: Fab 5371 (Fab, V domains shown)
VH: B3 VH with G32S, S52Y, Y56D, S58G, T59S, A105V, L107A, G112A
VL: B1 VL with S28D, Y32V, N53S, T56S, S93Q, T94I
notes: Fab from E. coli; also called VH33/VL33
In assay [1], B4 gave a Kd of 3.97 nM, a koff of 0.00479 s⁻¹ and a kon of 1.21e+06 M⁻¹ s⁻¹.

B5: Fab 4140 (Fab, V domains shown)
VH: EVQLVESGGGLVQPGGSLRLSCAASGYSISSGYHWNWIRQAPGKGLEWVSSISGSGGSTYYADSVKGRFTISRDNSKNTLYLQLNSLRAEDTAVYYCARDPNYYSSGSYFDYWGQGTLVTVSS
VL: B1 VL with S28G, S30G, Y32F, A34G, L54R, E55A, V58I, G91S, T94L
notes: Fab from E. coli; also called VH9/VL9
On to B5, for which, in assay [1], the Kd is under 0.001 nM, the koff was under 1e-07 s⁻¹ and the kon was 25700 M⁻¹ s⁻¹.

B6: Fab 5341 (Fab, V domains shown)
VH: B1 VH with Y34H, N36A, G51A, S58T, G100E, D103T, L106T
VL: DIQLTQSPSSLSASVGDRVTITCSASSRVGYVHWYQQKPGKAPKLLIYDASSLESGVPSRFSGSGSGTDFTLTISSLQPEDFATYYCQQGYYTWTFGQGTKVEIKR
notes: Fab from E. coli; also called VH20/VL20
In assay [1], B6 displayed a Kd of 29.3 nM, a koff of 0.00188 s⁻¹ and a kon of 64200 M⁻¹ s⁻¹.

B7: Fab 5348 (Fab, V domains shown)
VH: EVQLVESGGGLVQPGGSLRLSCAASGFSLSTGGVAVGWIRQAPGKGLEWVSGISGDGGTTYYADSVKGRFTISRDNSKNTLYLQLNSLRAEDTAVYYCTREDYGPHAYWGQGTLVTVSS
VL: B1 VL with S30T, S31T, A34N, G91S, T94Y, W95S
notes: Fab from E. coli; also called VH23/VL23
In assay [1], B7 returned a Kd of 10.2 nM, a koff of 0.0133 s⁻¹ and a kon of 1.31e+06 M⁻¹ s⁻¹.

B8: Fab 5408 (Fab, V domains shown)
VH: B1 VH with H33Y, Y34H, N36S, G51S, D55Y, S57D, S58T, G100E, A104T
VL: B1 VL with R24Q, S28D, S30R, S31T, T94I
notes: Fab from E. coli; also called VH36/VL36
As to B8, in assay [1], the Kd came to 23.6 nM, the koff stood at 0.0075 s⁻¹ and the kon came out at 318000 M⁻¹ s⁻¹. Further, in assay [2], the dissociation constant (Kd) stood at 24 nM, the koff stood at 0.0075 s⁻¹ and the kon was 320000 M⁻¹ s⁻¹.

B9: Fab 5413 (Fab, V domains shown)
VH: EVQLVESGGGLVQPGGSLRLSCAASGFSLSTGGVAVGWIRQAPGKGLEWLALIDWDGDKSYSTSLKSRLTISRDNSKNTLYLQLNSLRAEDTAVYYCAREGSTAVVGDWFDYWGQGTLVTVSS
VL: B1 VL with S28G, S31R, L54R, E55A, V58I, T94L
notes: Fab from E. coli; also called VH38/VL38
In assay [1], B9 displayed a Kd of 0.993 nM, a koff of 0.000551 s⁻¹ and a kon of 555000 M⁻¹ s⁻¹. In assay [2], this molecule returned a Kd of 0.99 nM, a koff of 0.00055 s⁻¹ and a kon of 560000 M⁻¹ s⁻¹.

B10: Fab 5370 (Fab, V domains shown)
VH: B9 VH with G32S, G37A, G57D, S60R, A104T
VL: B1 VL with S28G, S30G, S31T, L54R, E55A, V58I, T94L
notes: Fab from E. coli; also called VH32/VL32
In assay [1], B10 registered a Kd of 1.91 nM, a koff of 0.001 s⁻¹ and a kon of 524000 M⁻¹ s⁻¹. In assay [2], the Kd came out at 1.9 nM, the koff was 0.001 s⁻¹ and the kon was determined as 520000 M⁻¹ s⁻¹.

B11: Fab 5318 (Fab, V domains shown)
VH: B9 VH with G32S, G57D, S60Y, V106A, D111A
VL: B1 VL with R24Q, S28D, S30R, S31T, Y32F, L54R, E55A, V58I
notes: Fab from E. coli; also called VH18/VL18
In assay [1], B11 displayed a Kd of 19 nM, a koff of 0.00269 s⁻¹ and a kon of 141000 M⁻¹ s⁻¹. In assay [2], this molecule gave a Kd of 19 nM, a koff of 0.0027 s⁻¹ and a kon of 140000 M⁻¹ s⁻¹.

B12: Fab 5342 (Fab, V domains shown)
VH: B9 VH with D56A, S102E, T103D, V106T, D111A
VL: B1 VL with R24Q, S28D, S30R, S31T, L54R, E55A, V58I, T94I
notes: Fab from E. coli; also called VH21/VL21
In assay [1], B12 gave a dissociation constant Kd of 38.9 nM, a koff of 0.00612 s⁻¹ and an association rate constant (kon) of 157000 M⁻¹ s⁻¹. In assay [2], this molecule gave a Kd of 39 nM, a koff of 0.0061 s⁻¹ and a kon of 160000 M⁻¹ s⁻¹.

B13: Fab 5409 (Fab, V domains shown)
VH: B1 VH with T30S, Y34H, N36A, G51V, D55S, G100E, A104T
VL: B1 VL with S28G
notes: Fab from E. coli; also called VH37/VL37
In assay [1], B13 yielded a Kd of 17 nM, a koff of 0.00427 s⁻¹ and a kon of 251000 M⁻¹ s⁻¹. Also, in assay [2], binding was characterised by a dissociation constant (Kd) of 17 nM, the koff is 0.0043 s⁻¹ and the kon turned out to be 250000 M⁻¹ s⁻¹.

B14: Fab 5314 (Fab, V domains shown)
VH: B9 VH with D56A, E100G, T103D, A104T, V106L, D111A
VL: B1 VL with S28G, I29V, S31P, L54R, E55A, V58I
notes: Fab from E. coli; also called VH16/VL16
In the case of B14, in assay [1], the Kd worked out at 8.39 nM, the koff came to 0.00177 s⁻¹ and the kon was 210000 M⁻¹ s⁻¹. In addition, in assay [2], binding was characterised by a dissociation constant (Kd) of 8.4 nM, the koff was found to be 0.0018 s⁻¹ and the kon was found to be 210000 M⁻¹ s⁻¹.

B15: Fab 4072 (Fab, V domains shown)
VH: EVQLVESGGGLVQPGGSLRLSCAASGFSLSTSGVAVSWIRQAPGKGLEWIGIINPNFGDTNYAQKFQGRVTISRDNSKNTLYLQLNSLRAEDTAVYYCARDEYYGGSYYFDYWGQGTLVTVSS
VL: DIQLTQSPSSLSASVGDRVTITCRASQDVRTAVAWYQQKPGKAPKLLIYDASNLETGVPSRFSGSGSGTDFTLTISSLQPEDFATYYCQQSYDWPPTFGQGTKVEIKR
notes: Fab from E. coli; also called VH2/VL2
With B15, in assay [1], the Kd was determined as 6.95 nM, the off-rate constant (koff) was found to be 0.00107 s⁻¹ and the kon worked out at 154000 M⁻¹ s⁻¹. In assay [2], binding was put at a Kd of 7 nM, the koff was 0.0011 s⁻¹ and the on-rate (kon) was found to be 150000 M⁻¹ s⁻¹.

B16: Fab 7163 (Fab, V domains shown)
VH: EVQLVESGGGLVQPGGSLRLSCAASGFSLSTSGVGVTWIRQAPGKSLEWIGDIYHSGSTYYSPSLKSRVTISRDNSKNTLYLQLNSLRAEDTAVYYCAREGSDAVAGDWFDYWGQGTLVTVSS
VL: DIQLTQSPSSLSASVGDRVTITCRASQSISSYLNWYQQKPGKAPKLLIYAASTLQSGVPSRFSGSGSGTDFTLTISSLQPEDFATYYCQQYYSTPLTFGQGTKVEIKR
notes: Fab from E. coli; also called VH59/VL59
As for B16, in assay [1], the Kd was determined as 12.6 nM, the koff is 0.00378 s⁻¹ and the kon stood at 299000 M⁻¹ s⁻¹.

B17: Fab 7166 (Fab, V domains shown)
VH: B16 VH with G35A, T37A, S46G, S58N, S62N, E100G, A104T, A106V, D111A
VL: B16 VL
notes: Fab from E. coli; also called VH60/VL60
In assay [1], B17 came in with a dissociation constant Kd of 12.4 nM, a koff of 0.00429 s⁻¹ and a kon of 345000 M⁻¹ s⁻¹.

B18: Fab 4139 (Fab, V domains shown)
VH: EVQLVESGGGLVQPGGSLRLSCAASGYTFTGYAIHWVRQAPGKGLEWVSAISGDGGSTYYADSVKGRFTISRDNSKNTLYLQLNSLRAEDTAVYYCARGYRGYFDYWGQGTLVTVSS
VL: DIQLTQSPSSLSASVGDRVTITCRASESVTSTYLAWYQQKPGKAPKLLIYDASNLETGVPSRFSGSGSGTDFTLTISSLQPEDFATYYCQQYSDWPPTFGQGTKVEIKR
notes: Fab from E. coli; also called VH8/VL8
For the molecule B18, in assay [1], the Kd was 1.65 nM, the koff worked out at 8.17e-05 s⁻¹ and the association rate constant (kon) turned out to be 49600 M⁻¹ s⁻¹.

B19: Fab 5404 (Fab, V domains shown)
VH: EVQLVESGGGLVQPGGSLRLSCAASGYSISSGYHWAWIRQAPGKGLEWIGEIYHSGSTYYSPSLKSRVTISRDNSKNTLYLQLNSLRAEDTAVYYCARSPYYYGVFDYWGQGTLVTVSS
VL: DIQLTQSPSSLSASVGDRVTITCSASSRVGSVYWYQQKPGKAPKLLIYDASNLETGVPSRFSGSGSGTDFTLTISSLQPEDFATYYCQQYTHDPVTFGQGTKVEIKR
notes: Fab from E. coli; also called VH34/VL34
As to B19, in assay [1], the affinity, expressed as Kd, was 3.3 nM; the koff worked out at 0.0013 s⁻¹; the kon was determined as 395000 M⁻¹ s⁻¹. In assay [2], the Kd turned out to be 3.3 nM, the koff was determined as 0.0013 s⁻¹ and the kon amounted to 400000 M⁻¹ s⁻¹.
